Publication doi:10.1101/2020.02.16.951632
Where “and” joins values, the source holds several entries; their conditions need not be identical. Equal entries are not always repeated.

Experiments:
[1] = molecular target: chloride intracellular channel 1 construct CLIC1C24 (UniProt O00299); assay: FRET or BRET
[2] = molecular target: chloride intracellular channel 1 construct CLIC1C24 (UniProt O00299); assay: two-colour single-molecule TIRF colocalisation with photobleaching step counting

- initial FRET efficiency (E) of the complexes [1]: 0.8 to 1
- proportion of CLIC1C24 colocalised with αBc (C176) (maximum, after 4 hr) [2]: 50%
- αBc subunits per complex (0.25 – 0.5 hr) [2]: 1 subunits and 3 subunits
- αBc subunits per complex (complexes whose abundance increased after 1 hr) [2]: > 6 subunits
- αBc subunits per complex (more complexes at molar ratio 2:1 to 4:1) [2]: > 10 subunits
- stoichiometry N ([2]; scale: αBc per CLIC1): 1
Substance: human αB-crystallin mutant αBc_(C176), fluorescently labelled (natural protein)
